{"source": "paper PMC4131687", "settings_in_all_cases": "modification not given", "key": {"[1]": {"molecular_target": "NaV1.4 (Rattus norvegicus), P15390", "sequence (P15390 whole entry)": "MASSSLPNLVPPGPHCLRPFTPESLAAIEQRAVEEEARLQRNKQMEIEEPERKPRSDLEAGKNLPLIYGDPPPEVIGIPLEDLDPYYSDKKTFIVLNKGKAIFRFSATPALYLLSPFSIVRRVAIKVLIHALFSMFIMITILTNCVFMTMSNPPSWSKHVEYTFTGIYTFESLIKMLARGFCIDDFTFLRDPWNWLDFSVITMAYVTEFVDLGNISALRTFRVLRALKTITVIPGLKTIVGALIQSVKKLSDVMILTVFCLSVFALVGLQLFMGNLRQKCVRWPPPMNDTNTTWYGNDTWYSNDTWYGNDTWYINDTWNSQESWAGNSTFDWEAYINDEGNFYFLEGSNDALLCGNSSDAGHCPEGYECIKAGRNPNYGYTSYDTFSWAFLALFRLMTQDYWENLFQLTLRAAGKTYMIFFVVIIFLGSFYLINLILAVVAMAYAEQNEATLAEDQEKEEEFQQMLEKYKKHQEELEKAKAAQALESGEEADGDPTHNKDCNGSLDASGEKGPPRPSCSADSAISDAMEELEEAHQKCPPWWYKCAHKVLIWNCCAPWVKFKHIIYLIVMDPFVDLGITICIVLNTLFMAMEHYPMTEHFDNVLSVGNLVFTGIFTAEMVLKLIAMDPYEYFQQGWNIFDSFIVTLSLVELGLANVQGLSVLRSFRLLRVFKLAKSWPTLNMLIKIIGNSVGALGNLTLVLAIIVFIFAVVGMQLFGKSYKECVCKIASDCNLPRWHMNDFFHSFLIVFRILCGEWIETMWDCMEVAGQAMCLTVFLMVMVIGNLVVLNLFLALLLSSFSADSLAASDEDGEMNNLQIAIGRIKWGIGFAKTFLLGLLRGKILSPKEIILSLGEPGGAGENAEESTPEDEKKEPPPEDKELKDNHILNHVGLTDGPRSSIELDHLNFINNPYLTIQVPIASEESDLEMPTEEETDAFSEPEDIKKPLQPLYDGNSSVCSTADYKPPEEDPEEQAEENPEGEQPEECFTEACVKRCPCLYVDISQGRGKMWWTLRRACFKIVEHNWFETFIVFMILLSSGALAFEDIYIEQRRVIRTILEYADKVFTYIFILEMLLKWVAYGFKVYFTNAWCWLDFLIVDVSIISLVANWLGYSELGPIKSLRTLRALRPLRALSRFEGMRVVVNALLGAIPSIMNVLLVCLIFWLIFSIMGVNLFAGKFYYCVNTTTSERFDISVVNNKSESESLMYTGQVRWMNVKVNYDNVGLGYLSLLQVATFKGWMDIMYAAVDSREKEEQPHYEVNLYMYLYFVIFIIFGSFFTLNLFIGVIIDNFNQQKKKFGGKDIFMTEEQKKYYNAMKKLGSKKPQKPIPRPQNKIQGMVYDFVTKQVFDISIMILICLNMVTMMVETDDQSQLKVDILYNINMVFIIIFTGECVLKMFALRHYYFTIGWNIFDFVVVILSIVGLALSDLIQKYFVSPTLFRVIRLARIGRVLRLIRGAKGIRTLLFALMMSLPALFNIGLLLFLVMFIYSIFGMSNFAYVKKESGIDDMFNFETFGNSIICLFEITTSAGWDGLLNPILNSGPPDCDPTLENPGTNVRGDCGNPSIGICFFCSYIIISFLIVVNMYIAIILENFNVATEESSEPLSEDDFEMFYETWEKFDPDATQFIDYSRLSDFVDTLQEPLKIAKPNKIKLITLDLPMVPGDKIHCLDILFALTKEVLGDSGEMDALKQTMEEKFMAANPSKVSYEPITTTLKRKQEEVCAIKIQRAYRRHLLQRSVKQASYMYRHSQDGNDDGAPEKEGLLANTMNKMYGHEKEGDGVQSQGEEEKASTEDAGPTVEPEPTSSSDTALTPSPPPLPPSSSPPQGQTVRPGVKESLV"}, "[2]": {"molecular_target": "NaV1.7 (Rattus norvegicus), O08562"}, "[3]": {"molecular_target": "NaV1.2 (Rattus norvegicus), P04775", "sequence (P04775 whole entry)": "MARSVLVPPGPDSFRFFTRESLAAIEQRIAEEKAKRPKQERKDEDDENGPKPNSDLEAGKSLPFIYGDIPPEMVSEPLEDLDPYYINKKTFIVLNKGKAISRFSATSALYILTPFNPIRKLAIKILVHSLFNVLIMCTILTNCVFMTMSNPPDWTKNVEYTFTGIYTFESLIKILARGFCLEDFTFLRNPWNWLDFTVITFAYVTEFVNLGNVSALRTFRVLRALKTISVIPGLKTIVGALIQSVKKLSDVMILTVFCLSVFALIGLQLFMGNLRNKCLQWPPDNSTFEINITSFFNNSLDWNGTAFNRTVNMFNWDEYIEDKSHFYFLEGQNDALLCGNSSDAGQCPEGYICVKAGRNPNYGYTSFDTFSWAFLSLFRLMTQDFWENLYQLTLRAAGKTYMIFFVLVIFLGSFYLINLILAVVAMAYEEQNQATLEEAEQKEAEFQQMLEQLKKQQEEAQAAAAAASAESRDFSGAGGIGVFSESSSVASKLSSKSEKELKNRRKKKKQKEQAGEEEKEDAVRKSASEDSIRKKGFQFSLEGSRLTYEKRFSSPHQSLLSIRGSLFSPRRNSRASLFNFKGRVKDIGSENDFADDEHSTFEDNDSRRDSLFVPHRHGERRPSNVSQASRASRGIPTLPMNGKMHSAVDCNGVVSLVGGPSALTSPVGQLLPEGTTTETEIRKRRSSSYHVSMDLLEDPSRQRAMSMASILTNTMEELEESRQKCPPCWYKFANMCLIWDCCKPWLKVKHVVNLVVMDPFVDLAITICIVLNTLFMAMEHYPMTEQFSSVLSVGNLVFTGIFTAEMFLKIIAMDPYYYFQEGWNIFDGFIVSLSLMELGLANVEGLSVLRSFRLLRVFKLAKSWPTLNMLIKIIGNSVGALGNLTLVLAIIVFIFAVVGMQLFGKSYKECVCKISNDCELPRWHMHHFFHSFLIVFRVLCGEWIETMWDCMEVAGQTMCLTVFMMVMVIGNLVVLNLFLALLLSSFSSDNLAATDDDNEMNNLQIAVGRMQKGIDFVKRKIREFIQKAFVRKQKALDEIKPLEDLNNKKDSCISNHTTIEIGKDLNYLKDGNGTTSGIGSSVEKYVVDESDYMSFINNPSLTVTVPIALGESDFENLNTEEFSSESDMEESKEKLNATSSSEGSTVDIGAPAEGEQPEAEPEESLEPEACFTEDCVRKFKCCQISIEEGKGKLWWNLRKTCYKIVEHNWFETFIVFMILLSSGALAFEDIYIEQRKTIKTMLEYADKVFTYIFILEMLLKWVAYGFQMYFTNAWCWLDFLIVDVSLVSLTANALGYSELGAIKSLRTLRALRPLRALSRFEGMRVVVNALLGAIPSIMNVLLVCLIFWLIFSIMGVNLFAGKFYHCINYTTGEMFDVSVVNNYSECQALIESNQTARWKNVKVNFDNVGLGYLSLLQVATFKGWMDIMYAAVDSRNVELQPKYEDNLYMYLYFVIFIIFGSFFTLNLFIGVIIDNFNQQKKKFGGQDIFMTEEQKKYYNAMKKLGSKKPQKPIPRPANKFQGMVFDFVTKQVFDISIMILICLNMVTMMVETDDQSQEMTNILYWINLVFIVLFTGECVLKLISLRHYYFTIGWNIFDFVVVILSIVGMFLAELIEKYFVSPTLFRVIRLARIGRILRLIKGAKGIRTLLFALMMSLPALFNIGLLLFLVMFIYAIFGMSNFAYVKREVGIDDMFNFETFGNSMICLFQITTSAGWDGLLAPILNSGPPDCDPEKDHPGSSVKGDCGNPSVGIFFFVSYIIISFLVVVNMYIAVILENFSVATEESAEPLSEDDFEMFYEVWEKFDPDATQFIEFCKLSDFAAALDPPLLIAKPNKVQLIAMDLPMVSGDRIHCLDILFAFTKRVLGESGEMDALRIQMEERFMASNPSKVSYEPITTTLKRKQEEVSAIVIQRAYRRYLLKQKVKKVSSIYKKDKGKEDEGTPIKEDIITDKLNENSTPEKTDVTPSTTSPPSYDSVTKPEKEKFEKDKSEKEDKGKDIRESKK"}}}
{"binder": "CCNCSSKWCRDHSRCC", "note": "[μ-conotoxin KIIIA-P2, P0C195]", "values": [{"measurement": "Kd", "setting": "[1]", "value": 830, "unit": "nM"}, {"measurement": "Kd", "setting": "[2]", "value": 1570, "unit": "nM"}, {"measurement": "Kd", "setting": "[3]", "value": 230, "unit": "nM"}]}
